The values that follow come from US20210046160A1 (Synthorx, Inc., priority 2019, published 2021).

The data set in a line: PK/PD in cynomolgus monkeys, Study No. 20157276. The following applies: cynomolgus monkey, 0.3 mg/kg single IV.

Description: The study was conducted at Charles River Laboratories, Inc. (Reno, Nev.) and PK data analysis was performed at NW Solutions (Seattle, Wash.). […] Both plasma and blood cells were collected for PK and PD analyses. Selected time points were used for PK, PD, cell population and hematology analysis.

As to “P65_30kD: SEQ ID NO: 25: IL-2 (SEQ ID NO: 4) with P65 replaced by AzK click-conjugated to methoxy linear 30 kDa PEG [Compound P65_30kD]”, the “AUC0-t, Animal 2705” value came to 120 µg·h/mL; the “AUC0-t, Mean” value came to 121 µg·h/mL; the “CL, Animal 2699” value was 2.47 mL/h/kg; the “CL, Animal 2705” value worked out at 2.49 mL/h/kg. The “CL, Mean” value was 2.48 mL/h/kg; the “Cmax, Animal 2699” value was 11000 ng/mL; the “Cmax, Animal 2705” value was 11400 ng/mL; the “Cmax, Mean” value is on record as 11200 ng/mL. In addition, the “Tmax, Animal 2699” value was found to be 30 min; the “Tmax, Animal 2705” value was found to be 30 min; the “Vss, Animal 2699” value was found to be 0.029 L/kg; the “Vss, Animal 2705” value was 0.0321 L/kg. Also, the “Vss, Mean” value was 0.0305 L/kg and the “mean plasma concentrations measurable out to (post-dose)” value came out at 168 h. In addition, the “Tmax, Mean” value (0.3 mg/kg) came out at 30 min.
